Data from paper PMC8571288 (Nature Communications, 2021).

How the values were obtained:
[1] = target: T1, CTC1Δ700N-ST complex (CTC1 lacking its N-terminal 700 residues, with STN1 and TEN1-His6) (human, UniProt Q2NKJ3 701-1217; Q9H668 1-368; Q86WV5 1-123); test: pull-down; 1 μM CST or CTC1Δ700N-ST (His6 on TEN1) with 1 μM RAD51, RecA or RPA, 20 min 37 °C, buffer D (35 mM Tris-HCl pH 7.5, 10% glycerol, 0.01% Igepal, 1 mM 2-mercaptoethanol) with 5 mM imidazole and 50 mM KCl; for RPA without DNA or with 2 μM 30-nt ssDNA; captured on His-Tag Dynabeads; SDS-PAGE, Coomassie; conditions: both partners purified
T1 construct: CTC1, human, with the N-terminal 700 residues removed (CTC1Δ700N); STN1, human, subunit of the CST complex; TEN1, human, subunit of the CST complex; also called CTC1∆700N-ST; not shown: His6, C-terminal, kept; copies: + +
T1 sequence (looked up) 1: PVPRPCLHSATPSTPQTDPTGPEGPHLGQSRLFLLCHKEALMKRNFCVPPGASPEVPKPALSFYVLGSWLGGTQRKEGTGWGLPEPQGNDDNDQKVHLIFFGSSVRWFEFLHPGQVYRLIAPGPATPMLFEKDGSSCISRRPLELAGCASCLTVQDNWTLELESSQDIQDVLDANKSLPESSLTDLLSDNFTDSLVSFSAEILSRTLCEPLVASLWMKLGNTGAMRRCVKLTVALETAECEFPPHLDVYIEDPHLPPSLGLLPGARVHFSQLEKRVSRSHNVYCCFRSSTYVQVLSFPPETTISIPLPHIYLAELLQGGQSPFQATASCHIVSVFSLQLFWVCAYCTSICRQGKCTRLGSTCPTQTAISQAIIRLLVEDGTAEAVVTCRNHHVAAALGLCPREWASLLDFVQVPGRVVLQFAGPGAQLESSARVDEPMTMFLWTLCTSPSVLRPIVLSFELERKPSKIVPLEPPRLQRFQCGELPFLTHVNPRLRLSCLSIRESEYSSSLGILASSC
T1 sequence (looked up) 2: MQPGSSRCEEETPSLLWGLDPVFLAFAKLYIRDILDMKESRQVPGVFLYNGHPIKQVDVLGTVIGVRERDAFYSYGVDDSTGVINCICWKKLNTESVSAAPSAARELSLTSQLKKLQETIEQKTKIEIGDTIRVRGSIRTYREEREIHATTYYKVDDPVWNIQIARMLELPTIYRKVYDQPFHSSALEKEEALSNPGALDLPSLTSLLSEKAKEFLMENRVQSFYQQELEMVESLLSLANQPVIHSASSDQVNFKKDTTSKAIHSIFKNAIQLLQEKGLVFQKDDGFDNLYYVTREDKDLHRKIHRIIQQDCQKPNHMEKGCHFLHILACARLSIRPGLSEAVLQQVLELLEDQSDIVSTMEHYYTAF
T1 sequence (looked up) 3: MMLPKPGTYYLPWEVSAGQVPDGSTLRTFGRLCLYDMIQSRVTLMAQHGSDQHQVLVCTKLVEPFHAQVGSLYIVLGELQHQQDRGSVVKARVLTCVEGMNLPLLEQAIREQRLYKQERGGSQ

[2] = target: T2, human CST complex (Flag-CTC1-STN1-TEN1-His6) (human, UniProt Q2NKJ3 1-1217; Q9H668 1-368; Q86WV5 1-123); test: as above; conditions: both partners purified
T2 construct: CTC1, human, subunit of the CST complex; STN1, human, subunit of the CST complex; TEN1, human, subunit of the CST complex; also called wild-type CST; not shown: Flag, N-terminal, kept; His6, C-terminal, kept; copies: + +

B1: human RAD51 (natural protein, UniProt Q06609 1-339, looked up)
chain: MAMQMQLEANADTSVEEESFGPQPISRLEQCGINANDVKKLEEAGFHTVEAVAYAPKKELINIKGISEAKADKILAEAAKLVPMGFTTATEFHQRRSEIIQITTGSKELDKLLQGGIETGSITEMFGEFRTGKTQICHTLAVTCQLPIDRGGGEGKAMYIDTEGTFRPERLLAVAERYGLSGSDVLDNVAYARAFNTDHQTQLLYQASAMMVESRYALLIVDSATALYRTDYSGRGELSARQMHLARFLRMLLRLADEFGVAVVITNQVVAQVDGAAMFAADPKKPIGGNIIAHASTTRLYLRKGRGETRICKIYDSPCLPEAEAMFAINADGVGDAKD
notes: RAD51 recombinase, human
B1: binds [1]; binds [2].
